The target of assay [1] is T1, Cynomolgus monkey CD98 ECD with C-terminal His-tag (cynomolgus monkey, UniProt P08195 105-529 (human entry)).
T1 construct: also called cyCD98 ECD; recombinant cynomolgus monkey CD98 extracellular domain
T1 chain: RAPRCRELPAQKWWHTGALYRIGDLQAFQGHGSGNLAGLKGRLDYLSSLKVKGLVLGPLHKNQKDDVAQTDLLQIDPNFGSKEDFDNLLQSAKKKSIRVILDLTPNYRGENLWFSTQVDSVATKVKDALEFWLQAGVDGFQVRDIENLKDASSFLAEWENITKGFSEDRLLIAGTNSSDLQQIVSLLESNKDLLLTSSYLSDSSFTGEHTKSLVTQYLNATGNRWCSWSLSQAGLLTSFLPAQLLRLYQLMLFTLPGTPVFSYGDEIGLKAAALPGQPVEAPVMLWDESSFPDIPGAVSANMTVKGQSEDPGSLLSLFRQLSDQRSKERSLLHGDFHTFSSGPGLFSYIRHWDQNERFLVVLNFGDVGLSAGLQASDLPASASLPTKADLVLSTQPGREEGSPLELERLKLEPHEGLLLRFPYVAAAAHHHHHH
The assay can be described thus: SPR (Biacore), mAb captured on anti-Fc, CD98 ECD as analyte. The procedure:
(§1) The binding kinetics of these purified mouse and rat monoclonal anti-CD98 antibodies for purified recombinant CD98 protein (extracellular domain, ECD) were determined by surface plasmon resonance-based measurements made on Biacore T100/T200 instruments (GE Healthcare, Piscataway, N.J.) at 25° C. using an anti-Fc capture assay approach. Binding kinetic measurements were made in the assay buffer HBS-EP+: 10 mM Hepes, pH 7.4, 150 mM NaCl, 3 mM EDTA, 0.05% Tween 20). For example, approximately 8000 RU of anti-Fc (species specific) polyclonal antibody (Thermo Fisher Scientific Inc., Rockford, Ill.) diluted in 10 mM sodium acetate (pH 4.5) was directly immobilized across a CM5 research grade biosensor chip using a standard amine coupling kit according to manufacturer's instructions and procedures at 25 μg/ml. Unreacted moieties on the biosensor surface were blocked with ethanolamine. The test antibody to be captured as a ligand was diluted in running buffer to ˜0.5 μg/mL and injected over anti-Fc surface at a flow rate of 10 μL/min. CD98 binding and dissociation were observed under a continuous flow rate of 80 μL/min. Human and cynomolgus monkey CD98 ECDs, both with a C-terminal His-tag, are used for this study (Table 3). After each cycle the anti-Fc capture surface was regenerated using 10 mM Glycine-HCl, pH 1.5. During the assay, all measurements were referenced against the capture surface alone (i.e., with no captured test antibody) and buffer-only injections (no antigen) were used for double referencing. For kinetic analysis, rate equations derived from the 1:1 Langmuir binding model were fitted simultaneously, globally and with mass transfer term included to multiple referenced antigen binding curves using Biacore T100/T200 Evaluation software.

Assay [2] has as its target T2, Human CD98 ECD with C-terminal His-tag (human, UniProt P08195 105-529).
T2 construct: also called huCD98 ECD; recombinant human CD98 extracellular domain
T2 sequence: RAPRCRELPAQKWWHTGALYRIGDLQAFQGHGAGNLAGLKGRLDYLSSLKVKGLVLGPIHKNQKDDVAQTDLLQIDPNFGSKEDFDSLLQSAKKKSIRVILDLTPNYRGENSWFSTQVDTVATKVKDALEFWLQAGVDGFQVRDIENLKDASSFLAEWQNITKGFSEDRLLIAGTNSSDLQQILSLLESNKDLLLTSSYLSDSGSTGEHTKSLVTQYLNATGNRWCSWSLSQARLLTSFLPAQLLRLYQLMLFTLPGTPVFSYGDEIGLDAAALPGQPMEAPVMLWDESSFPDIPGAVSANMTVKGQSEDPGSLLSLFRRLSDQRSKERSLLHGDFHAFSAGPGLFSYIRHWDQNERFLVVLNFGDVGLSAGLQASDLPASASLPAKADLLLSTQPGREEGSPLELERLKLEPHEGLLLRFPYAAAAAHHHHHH
The description is as above. As for the experimental part: as §1

The next assay has as its target T3, human CD98 (Homo sapiens, UniProt P08195).
T3 sequence (P08195 1-630 isoform P08195-1): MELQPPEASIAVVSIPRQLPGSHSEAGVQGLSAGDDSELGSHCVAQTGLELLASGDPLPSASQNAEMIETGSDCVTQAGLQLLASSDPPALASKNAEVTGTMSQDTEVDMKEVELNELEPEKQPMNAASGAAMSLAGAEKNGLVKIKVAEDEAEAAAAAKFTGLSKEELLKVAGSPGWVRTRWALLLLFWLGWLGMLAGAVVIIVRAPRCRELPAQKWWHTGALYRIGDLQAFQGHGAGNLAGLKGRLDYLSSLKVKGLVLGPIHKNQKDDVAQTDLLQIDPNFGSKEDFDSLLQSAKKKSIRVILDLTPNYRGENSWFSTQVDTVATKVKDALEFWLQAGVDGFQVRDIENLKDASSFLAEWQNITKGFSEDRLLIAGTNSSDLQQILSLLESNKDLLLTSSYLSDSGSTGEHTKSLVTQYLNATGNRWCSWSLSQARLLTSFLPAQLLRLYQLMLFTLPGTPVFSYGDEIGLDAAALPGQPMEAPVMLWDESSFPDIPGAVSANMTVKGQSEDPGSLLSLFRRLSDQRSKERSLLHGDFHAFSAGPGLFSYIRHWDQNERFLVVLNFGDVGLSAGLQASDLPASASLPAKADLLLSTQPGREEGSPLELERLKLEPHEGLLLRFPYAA
Kind of assay: Binding of humanized anti-CD98 antibodies to human CD98. Conditions: humanized variants of huAb3/huAb15 and framework engineered antibodies.

Assay [3] relates to cynomolgus monkey CD98 ECD (cyCD98 ECD). The assay can be described thus: Biacore surface plasmon resonance binding kinetics, anti-Fc capture. Conditions: framework re-engineered mAbs, Table 24. As for the experimental part:
as §1
(§2) The in vitro binding activities of the recombinant anti-CD98 chimeric mAbs were measured against both recombinant CD98 extracellular domain proteins (ECDs) and CD98-expressing cells. Briefly, binding kinetics of anti-CD98 chimera mAbs for human and cynomolgus CD98 ECDs were determined by surface plasmon resonance-based measurements as described in Example 4. Table 10 reported the association and dissociation rate constants for CD98 binding, ka (M^−1s^−1) and […], and the equilibrium dissociation constant KD (M) of the interaction between antibodies and the target antigen. Binding of anti-CD98 chimera mAbs for CD98 on cell surface was evaluated by flow cytometry against CHO-K1 cell line stably transfected to express human CD98 and 3T12 cell line stably transfected to express cynomolgus monkey CD98. Data was analyzed using Graphpad Prism software and EC50 values were reported as the concentration of antibody to achieve 50% of maximal binding to CD98-expressing cells (Table 10).
(§3) The binding kinetics of the recombinant anti-CD98 chimeric antibodies for purified recombinant CD98 protein (extracellular domain. ECD) were determined by surface plasmon resonance-based measurements, as described in the Example 4.

For assay [4], the target named is T4, human CD98 ECD (huCD98 ECD) (Homo sapiens, UniProt P08195).
T4 construct: His6 (with AAA linker) (C)
T4 sequence (P08195 with tags, fused parts or gaps): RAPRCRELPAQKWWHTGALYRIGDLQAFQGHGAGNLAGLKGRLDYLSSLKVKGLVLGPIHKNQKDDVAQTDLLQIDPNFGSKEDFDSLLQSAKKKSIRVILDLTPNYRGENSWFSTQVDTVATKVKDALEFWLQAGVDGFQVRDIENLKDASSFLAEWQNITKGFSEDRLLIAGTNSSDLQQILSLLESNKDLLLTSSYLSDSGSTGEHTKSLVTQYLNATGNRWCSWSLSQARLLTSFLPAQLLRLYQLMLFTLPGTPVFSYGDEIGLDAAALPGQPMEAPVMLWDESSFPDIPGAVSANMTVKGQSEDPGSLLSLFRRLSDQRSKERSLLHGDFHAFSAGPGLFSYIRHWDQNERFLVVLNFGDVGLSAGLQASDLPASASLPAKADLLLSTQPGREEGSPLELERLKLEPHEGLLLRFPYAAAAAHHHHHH
The description is as above. Conditions: framework re-engineered mAbs, Table 24. The procedure: as §1, §2, §3

Consider six molecules from patent US20200002432A1, “ANTI-CD98 ANTIBODIES AND ANTIBODY DRUG CONJUGATES” (AbbVie Inc., priority 2016, published 2020).

B1: Ab13 (antibody, V domains shown)
VH: EVKLQQSGDELVRPGASVKISCKASGYTFTSYSMHWVKERPGQGLEWIGAIFPIIGTTEYNQKFKGKATLTADKSSNTANMELSRLTSEDSAVYYCARVYLSYFDYWGQGVMVTVSS
VL: DIQMTQSPSFLSASVGDRVTINCKASQNINKYLDWYQRKHGEAPKLLIYNTNNLQTGIPSRFSGSGSGTDYTLTISSLQPEDVATYFCLQHSSRYTFGAGTKLELK
notes: also called anti-CD98 hybridoma mAb Ab13
Turning to B1, in assay [1], binding was put at a Kd of 47 nM, the koff came out at 0.00088 s⁻¹ and the on-rate (kon) was 19000 M⁻¹ s⁻¹. In assay [2], this molecule returned a dissociation constant Kd of 1.9 nM, a koff of 5.5e-05 s⁻¹ and an association rate constant (kon) of 29000 M⁻¹ s⁻¹.

B2: huAb101: humanized framework engineered anti-CD98 antibody; heavy chain variable SEQ ID NO: 106, light chain variable SEQ ID NO: 107 (antibody, V domains shown)
VH: EVQLVESGGGLVKPGGSLRLSCATSGFTFIDYYMSWVRQAPGKGLEWLGFIRNKANRYTTEYSASVKGRFTISRDNSKSILYLQMNSLKTEDTAVYYCTRDRPAWFVYWGQGTLVTVSS
VL: DIVMTQTPLSLPVTPGEPASISCKSSQSLLYSSNQKNYLAWYLQKPGQSPQLLIYWASTRESGVPDRFSGSGSGTDFTLKISRVEAEDVGVYYCQQYYSYPYTFGGGTKVEIK
Turning to B2, the “binding to human CD98” value with human CD98 is “maintained binding to human CD98”. Besides, in assay [3], the “ka, cynoCD98 ECD” value came to 30000 M⁻¹ s⁻¹ and the “kd, cynoCD98 ECD” value was determined as 0.00067 s⁻¹. In assay [4], the “ka, huCD98 ECD” value came out at 290000 M⁻¹ s⁻¹ and the “kd, huCD98 ECD” value is 0.0018 s⁻¹.

B3: huAb107: humanized framework engineered anti-CD98 antibody; heavy chain variable SEQ ID NO: 114, light chain variable SEQ ID NO: 112 (antibody, V domains shown)
VH: EVQLVESGGGLVQPGGSLRLSCAASGFTFSDYTMAWVRQAPGKGLEWVATIIYSGRGTYYRDAVKGRFTISRDNAKNTLYLQMNSLRAEDTAVYYCARQSDDTYYYWGYFDYWGQGTMVTVSS
VL: DIVMTQTPLSLPVTPGEPASINCKSSQSLLFSGNQKNYLAWYLQKPGQSPQLLIYWASTRQSGVPDRFSGSGSGTDFTLKISRVEAEDVGIYYCQQYYDVPYTFGQGTKLEIK
On to B3, for which the “binding to human CD98” value in the assay with human CD98 is “maintained binding to human CD98”. In addition, in assay [3], the “ka, cynoCD98 ECD” value turned out to be 33000 M⁻¹ s⁻¹ and the “kd, cynoCD98 ECD” value was determined as 8.7e-05 s⁻¹. In addition, in assay [4], the “ka, huCD98 ECD” value amounted to 110000 M⁻¹ s⁻¹ and the “kd, huCD98 ECD” value stood at 3.8e-05 s⁻¹.

B4: huAb109: humanized framework engineered anti-CD98 antibody; heavy chain variable SEQ ID NO: 116, light chain variable SEQ ID NO: 117 (antibody, V domains shown)
VH: EVQLVESGGGLVQPGGSLRLSCAASGFTFSDYTMAWVRQAPGKGLEWVATIIYDARGTYYRDAVKGRFTISRDNAKNTLYLQMNSLRAEDTAVYYCARQSDDTYYYWGYFDYWGQGTMVTVSS
VL: DIVMTQTPLSLPVTPGEPASINCKSSQSLLFSGNQKNYLAWYLQKPGQSPQLLIYWASTRQSGVPDRFSGSGSGTDFTLKISRVEAEDVGIYYCQQYYSSPYTFGQGTKLEIK
B4: the “binding to human CD98” value in the assay with human CD98 is on record as “maintained binding to human CD98”. In addition, in assay [3], the “ka, cynoCD98 ECD” value was determined as 26000 M⁻¹ s⁻¹ and the “kd, cynoCD98 ECD” value stood at 0.00031 s⁻¹. Besides, in assay [4], the “ka, huCD98 ECD” value worked out at 160000 M⁻¹ s⁻¹ and the “kd, huCD98 ECD” value turned out to be 0.00017 s⁻¹.

B5: huAb103: humanized framework engineered anti-CD98 antibody; heavy chain variable SEQ ID NO: 109, light chain variable SEQ ID NO: 107 (antibody, V domains shown)
VH: EVQLVESGGGLVKPGGSLRLSCATSGFTFIDYYMSWVRQAPGKGLEWLGFIRNKAYGYTTEYSASVKGRFTISRDNSKSILYLQMNSLKTEDTAVYYCTRDRPAWFVYWGQGTLVTVSS
VL: DIVMTQTPLSLPVTPGEPASISCKSSQSLLYSSNQKNYLAWYLQKPGQSPQLLIYWASTRESGVPDRFSGSGSGTDFTLKISRVEAEDVGVYYCQQYYSYPYTFGGGTKVEIK
For B5, the “binding to human CD98” value with human CD98 is “maintained binding to human CD98”. For the same molecule, in assay [3], the “ka, cynoCD98 ECD” value is 31000 M⁻¹ s⁻¹ and the “kd, cynoCD98 ECD” value is 0.00044 s⁻¹. Also, in assay [4], the “ka, huCD98 ECD” value came out at 180000 M⁻¹ s⁻¹ and the “kd, huCD98 ECD” value amounted to 0.00059 s⁻¹.

B6: huAb105: humanized framework engineered anti-CD98 antibody; heavy chain variable SEQ ID NO: 111, light chain variable SEQ ID NO: 112 (antibody, V domains shown)
VH: EVQLVESGGGLVQPGGSLRLSCAASGFTFSDYTMAWVRQAPGKGLEWVATIIYSGRGTYYRDAVKGRFTISRDNAKNTLYLQMNSLRAEDTAVYYCARQSDHTYYYWGYFDYWGQGTMVTVSS
VL: DIVMTQTPLSLPVTPGEPASINCKSSQSLLFSGNQKNYLAWYLQKPGQSPQLLIYWASTRQSGVPDRFSGSGSGTDFTLKISRVEAEDVGIYYCQQYYDVPYTFGQGTKLEIK
B6: in the assay with human CD98, the “binding to human CD98” value is “maintained binding to human CD98”. Moreover, in assay [3], the “ka, cynoCD98 ECD” value came to 38000 M⁻¹ s⁻¹ and the “kd, cynoCD98 ECD” value is 5.3e-05 s⁻¹. For the same molecule, in assay [4], the “ka, huCD98 ECD” value amounted to 140000 M⁻¹ s⁻¹ and the “kd, huCD98 ECD” value worked out at 2.4e-05 s⁻¹.
